In IntAct's records for PubMed 21360678:

B1: Serine/threonine-protein phosphatase 5 (Homo sapiens), P53041 (parent)
chain: MAMAEGERTECAEPPRDEPPADGALKRAEELKTQANDYFKAKDYENAIKFYSQAIELNPSNAIYYGNRSLAYLRTECYGYALGDATRAIELDKKYIKGYYRRAASNMALGKFRAALRDYETVVKVKPHDKDAKMKYQECNKIVKQKAFERAIAGDEHKRSVVDSLDIESMTIEDEYSGPKLEDGKVTISFMKELMQWYKDQKKLHRKCAYQILVQVKEVLSKLSTLVETTLKETEKITVCGDTHGQFYDLLNIFELNGLPSETNPYIFNGDFVDRGSFSVEVILTLFGFKLLYPDHFHLLRGNHETDNMNQIYGFEGEVKAKYTAQMYELFSEVFEWLPLAQCINGKVLIMHGGLFSEDGVTLDDIRKIERNRQPPDSGPMCDLLWSDPQPQNGRSISKRGVSCQFGPDVTKAFLEENNLDYIIRSHEVKAEGYEVAHGGRCVTVFSAPNYCDQMGNKASYIHLQGSDLRPQFHQFTAVPHPNVKPMAYANTLLQLGMM
partner: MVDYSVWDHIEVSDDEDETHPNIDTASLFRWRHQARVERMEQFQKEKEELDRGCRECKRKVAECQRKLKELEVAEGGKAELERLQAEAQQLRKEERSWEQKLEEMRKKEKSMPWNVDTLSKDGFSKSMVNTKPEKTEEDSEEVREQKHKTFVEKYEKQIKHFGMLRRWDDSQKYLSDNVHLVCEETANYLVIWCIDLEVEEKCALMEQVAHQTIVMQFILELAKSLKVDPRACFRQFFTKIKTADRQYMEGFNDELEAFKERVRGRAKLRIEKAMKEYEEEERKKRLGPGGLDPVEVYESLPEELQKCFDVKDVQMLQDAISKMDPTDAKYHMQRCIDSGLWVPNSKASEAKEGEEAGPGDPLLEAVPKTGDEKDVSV

Variants of: B1
Conditions: with cdc37_human CDC37, Q16543

effect of a mutation on the interaction	Variant
disrupting interaction	K97A;R101A
